Test results from the RNAGym collection of RNA variant scans (doi:10.1073/pnas.2313332121).
Fewer inactive variants are shown than the library holds.

B1: TPR 5TU (parent)
chain: GGAUCUUCUCGAUCUAACAAAAAAGACAAAUCUGCCACAAAGCUUGAGAGCAUCUUCGGAUGCAGAGGCGGCAGCCUUCGGUGGCGCGAUAGCGCCAACGUUCUCAACUAUGACACGCAAAACGCGUGCUCCGUUGAAUGGAGUUUAUCAUG

Variants of: B1
Assay: polymerase ribozyme fitness, log enrichment relative to wild type (log ratio); higher = more active; in vitro selection for triplet polymerase activity
Procedure, shortened: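 Both subunits of a heterodimeric triplet polymerase ribozyme were given their own mutant library, built by PCR and transcribed. Each library was annealed with a biotinylated primer, the partner subunit and triplets, incubated frozen at −7 °C, and its extended constructs gel-excised, captured on streptavidin beads and amplified by RT-PCR, all in one round done in triplicate. Fitness is the logarithm of genotype enrichment relative to wild-type enrichment, with replicates averaged by inverse-variance weighting. That logarithm is base 2, and Illumina-sequenced genotypes needed ≥10 input reads and ≥1 read per output.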
For G59A A60C C79G G81A U101G C132A U146A, the “polymerase ribozyme fitness (log ratio)” value was at most -4.2.
For G58U A89G, the “polymerase ribozyme fitness (log ratio)” value was -0.659.
For G59A C75G A122U C129A G143U, the “polymerase ribozyme fitness (log ratio)” value was -3.5.
With G58A G84A U104G G126U the “polymerase ribozyme fitness (log ratio)” value was -0.778.
For G58C C76G U77G, the “polymerase ribozyme fitness (log ratio)” value was at most -4.2.
With G59C G83A C103U A122G the “polymerase ribozyme fitness (log ratio)” value was -0.809.
In the case of G59C A73G C85A, the “polymerase ribozyme fitness (log ratio)” value is reported as -2.84.
With G59U A120G the “polymerase ribozyme fitness (log ratio)” value was -0.485.
With A60C A91U the “polymerase ribozyme fitness (log ratio)” value was at most -4.2.
In the case of G58C G59A C85U G133C, the “polymerase ribozyme fitness (log ratio)” value is reported as -1.29.
In the case of G58C A106C, the “polymerase ribozyme fitness (log ratio)” value is reported as 0.355.
For G59C U78C C85A U144A A150U, the “polymerase ribozyme fitness (log ratio)” value was at most -4.2.
In the case of G59C G126C, the “polymerase ribozyme fitness (log ratio)” value is reported as 0.783.
With G59A G94A the “polymerase ribozyme fitness (log ratio)” value was -0.522.
With G58C C85U G117U the “polymerase ribozyme fitness (log ratio)” value was -0.00983.
In the case of A60C C85U, the “polymerase ribozyme fitness (log ratio)” value is reported as -1.01.
With G59A G83C A89U the “polymerase ribozyme fitness (log ratio)” value was -1.39.
With A60C C76U G80C G117U C123A the “polymerase ribozyme fitness (log ratio)” value was at most -4.2.
For G58C G140C, the “polymerase ribozyme fitness (log ratio)” value was -4.02.
For G59C C96G C118G A142U, the “polymerase ribozyme fitness (log ratio)” value was -3.61.
For G59A C99G, the “polymerase ribozyme fitness (log ratio)” value was -1.14.
In the case of G59A C87U, the “polymerase ribozyme fitness (log ratio)” value is reported as -1.42.
In the case of G59C C93U, the “polymerase ribozyme fitness (log ratio)” value is reported as -1.11.
With G59C C93G the “polymerase ribozyme fitness (log ratio)” value was -2.98.
In the case of G59C G92U C105A C125A C149U, the “polymerase ribozyme fitness (log ratio)” value is reported as at most -4.2.
With G59A G92C the “polymerase ribozyme fitness (log ratio)” value was -2.78.
For A60C A91U C93G A122C, the “polymerase ribozyme fitness (log ratio)” value was at most -4.2.
In the case of G59U C103U, the “polymerase ribozyme fitness (log ratio)” value is reported as -0.503.
In the case of G59A A137U G141C, the “polymerase ribozyme fitness (log ratio)” value is reported as -3.95.
In the case of G59U G68A C96U, the “polymerase ribozyme fitness (log ratio)” value is reported as at most -4.2.
For G59A A122G U148C, the “polymerase ribozyme fitness (log ratio)” value was -3.
With G58A U104A the “polymerase ribozyme fitness (log ratio)” value was 0.105.
In the case of G59A A142G, the “polymerase ribozyme fitness (log ratio)” value is reported as -0.65.
With G59C C75U A98U the “polymerase ribozyme fitness (log ratio)” value was -0.152.
For G58C C85G U90A U139A G140U, the “polymerase ribozyme fitness (log ratio)” value was at most -4.2.
With G59U A64G A89G A107C the “polymerase ribozyme fitness (log ratio)” value was at most -4.2.
For G59U C87G C95U U101G C149G, the “polymerase ribozyme fitness (log ratio)” value was at most -4.2.
For G58U G92A, the “polymerase ribozyme fitness (log ratio)” value was -2.51.
With G58C A119C the “polymerase ribozyme fitness (log ratio)” value was -0.0646.
For G59U A97C, the “polymerase ribozyme fitness (log ratio)” value was -0.238.
In the case of G58A G86A, the “polymerase ribozyme fitness (log ratio)” value is reported as -1.63.
In the case of G59A A122U, the “polymerase ribozyme fitness (log ratio)” value is reported as 0.148.
In the case of G59C A73G G86U, the “polymerase ribozyme fitness (log ratio)” value is reported as -2.26.
With G58C C72A A110C A147G A150C the “polymerase ribozyme fitness (log ratio)” value was at most -4.2.
In the case of G59A G100C, the “polymerase ribozyme fitness (log ratio)” value is reported as at most -4.2.
With G58C U82A G143C the “polymerase ribozyme fitness (log ratio)” value was -1.86.
With G59A A106G U134A the “polymerase ribozyme fitness (log ratio)” value was -2.03.
For G59C C85G, the “polymerase ribozyme fitness (log ratio)” value was -1.64.
For G59U A66G A91G G100U U134A G143A A147G A150C, the “polymerase ribozyme fitness (log ratio)” value was at most -4.2.
With G58C C72U A98G the “polymerase ribozyme fitness (log ratio)” value was 0.461.
In the case of A60C C76U A89G C114U G141U, the “polymerase ribozyme fitness (log ratio)” value is reported as at most -4.2.
In the case of G59U G80A, the “polymerase ribozyme fitness (log ratio)” value is reported as -0.046.
In the case of G58C G84U A97U, the “polymerase ribozyme fitness (log ratio)” value is reported as -3.58.
In the case of G59U C69U G86A C95G A107U, the “polymerase ribozyme fitness (log ratio)” value is reported as at most -4.2.
In the case of G59A A107U G126A, the “polymerase ribozyme fitness (log ratio)” value is reported as -3.68.
For G58U C105U U134A A137U U144A, the “polymerase ribozyme fitness (log ratio)” value was at most -4.2.
In the case of G59C C87G, the “polymerase ribozyme fitness (log ratio)” value is reported as at most -4.2.
In the case of G59C C69U C93G G100A G124U, the “polymerase ribozyme fitness (log ratio)” value is reported as at most -4.2.
For G58A G143U, the “polymerase ribozyme fitness (log ratio)” value was -1.82.
With G58U G59U U82A G84A A115U G143A the “polymerase ribozyme fitness (log ratio)” value was at most -4.2.
For G58U C95U, the “polymerase ribozyme fitness (log ratio)” value was -0.414.
For G58C A122U A142G G143A, the “polymerase ribozyme fitness (log ratio)” value was -4.05.
For G58C A64C C69G C85U A110U U134G, the “polymerase ribozyme fitness (log ratio)” value was at most -4.2.
In the case of G59C C75U, the “polymerase ribozyme fitness (log ratio)” value is reported as -1.52.
With G58U G59U C96G C123A C149U the “polymerase ribozyme fitness (log ratio)” value was -3.08.
With G58C C95U A150C the “polymerase ribozyme fitness (log ratio)” value was -3.72.
With G58U G83C the “polymerase ribozyme fitness (log ratio)” value was -0.165.
For A60C C76U C93U, the “polymerase ribozyme fitness (log ratio)” value was -3.48.
With G59U G86U the “polymerase ribozyme fitness (log ratio)” value was -3.85.
In the case of G58C A60G G92A A121U, the “polymerase ribozyme fitness (log ratio)” value is reported as -2.24.
For G59C C85G A89U G92A, the “polymerase ribozyme fitness (log ratio)” value was at most -4.2.
In the case of G59C C96U A106G C132U U145C, the “polymerase ribozyme fitness (log ratio)” value is reported as -0.905.
In the case of G59U G81A C85G A106C, the “polymerase ribozyme fitness (log ratio)” value is reported as -3.51.
For G58U C95A C149U, the “polymerase ribozyme fitness (log ratio)” value was -0.828.
In the case of G58U G126U A150C, the “polymerase ribozyme fitness (log ratio)” value is reported as -4.03.
In the case of G59A G84A, the “polymerase ribozyme fitness (log ratio)” value is reported as -2.24.
In the case of G58U A60G, the “polymerase ribozyme fitness (log ratio)” value is reported as 0.208.
In the case of A60C G65U C132A, the “polymerase ribozyme fitness (log ratio)” value is reported as -4.19.
In the case of G59U A60C G83A C116U C118G, the “polymerase ribozyme fitness (log ratio)” value is reported as -2.5.
With G59A U127A the “polymerase ribozyme fitness (log ratio)” value was -3.81.
In the case of G59C G86U, the “polymerase ribozyme fitness (log ratio)” value is reported as -1.67.
For A60C C96U A142C G143A, the “polymerase ribozyme fitness (log ratio)” value was at most -4.2.
In the case of G59A G62A G86U A107C, the “polymerase ribozyme fitness (log ratio)” value is reported as at most -4.2.
